# B1: human His-MELK^1−326,T167E (maternal embryonic leucine-zipper kinase, kinase domain and flanking ubiquitin-associated domain, residues 1–326, T167E) (domain or fragment, UniProt Q14680 1-326, looked up)
# chain: MKDYDELLKYYELHETIGTGGFAKVKLACHILTGEMVAIKIMDKNTLGSDLPRIKTEIEALKNLRHQHICQLYHVLETANKIFMVLEYCPGGELFDYIISQDRLSEEETRVVFRQIVSAVAYVHSQGYAHRDLKPENLLFDEYHKLKLIDFGLCAKPKGNKDYHLQECCGSLAYAAPELIQGKSYLGSEADVWSMGILLYVLMCGFLPFDDDNVMALYKKIMRGKYDVPKWLSPSSILLLQQMLQVDPKKRISMKNLLNHPWIMQDYNYPVEWQSKNPFIHLDDDCVTELSVHHRNNRQTMEDLISLWQYDHLTATYLLLLAKKAR
# modifications: RED-tris-NTA dye on the His tag (in the MST experiment only)
# Target: bovine arrestin-3^1−393 (truncated arrestin-3, residues 1–393), purified (bovine, UniProt P32120 1-393)
# Sequence (P32120 1-393): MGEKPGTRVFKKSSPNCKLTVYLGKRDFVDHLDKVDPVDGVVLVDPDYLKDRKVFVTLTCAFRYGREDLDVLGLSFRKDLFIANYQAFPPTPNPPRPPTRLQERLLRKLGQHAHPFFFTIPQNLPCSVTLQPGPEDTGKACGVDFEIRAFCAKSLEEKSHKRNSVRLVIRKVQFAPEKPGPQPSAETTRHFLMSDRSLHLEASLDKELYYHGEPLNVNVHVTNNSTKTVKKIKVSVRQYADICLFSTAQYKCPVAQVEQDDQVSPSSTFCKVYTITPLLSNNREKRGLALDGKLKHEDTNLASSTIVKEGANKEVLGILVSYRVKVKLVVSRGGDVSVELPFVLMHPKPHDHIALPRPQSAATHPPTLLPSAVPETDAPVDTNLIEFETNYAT
# Assay: MST
binder,measurement,value
B1,Kd,130 ± 35 nM
